{"source": "patent US20070275898", "proteins": {"B1": {"name": "Pol IV DNA polymerase of Escherichia coli (protein)", "chain": "MRKIIHVDMDCFFAAVEMRDNPALRDIPIAIGGSRERRGVISTANYPARKFGVRSAMPTGMALKLCPHLTLLPGRFDAYKEASNHIREIFSRYTSRIEPLSLDEAYLDVTDSVHCHGSATLIAQEIRQTIFNELQLTASAGVAPVKFLAKIASDMNKPNGQFVITPAEVPAFLQTLPLAKIPGVGKVSAAKLEAMGLRTCGDVQKCDLVMLLKRFGKFGRILWERSQGIDERDVNSERLRKSVGVERTMAEDIHHWSECEAIIERLYPELERRLAKVKPDLLIARQGVKLKFDDFQQTTQEHVWPRLNKADLIATARKTWDERRGGRGVRLVGLHVTLLDPQMERQLVLGL"}}, "target": "β subunit of DNA polymerase III of Escherichia coli, P0A988", "sequence (P0A988 whole entry)": "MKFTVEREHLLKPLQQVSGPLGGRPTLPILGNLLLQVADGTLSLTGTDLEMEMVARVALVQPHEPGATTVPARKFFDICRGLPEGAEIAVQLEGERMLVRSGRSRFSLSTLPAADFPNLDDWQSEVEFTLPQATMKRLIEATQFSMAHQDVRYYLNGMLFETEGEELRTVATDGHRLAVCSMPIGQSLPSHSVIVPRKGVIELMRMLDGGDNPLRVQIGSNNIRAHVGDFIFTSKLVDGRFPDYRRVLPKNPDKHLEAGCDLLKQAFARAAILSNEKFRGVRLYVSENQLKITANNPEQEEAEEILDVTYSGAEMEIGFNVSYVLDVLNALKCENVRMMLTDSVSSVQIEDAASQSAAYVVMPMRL", "data": [{"protein": "B1", "values": [{"measurement": "growth rate (OD 600 nm) of E. coli on IPTG-induced expression", "result": "a clear growth inhibition was observed for the culture expressing the wild type Pol IV protein compared to the one expressing the mutant protein"}, {"measurement": "in vitro polymerase activity of Pol IV", "result": "the in vitro activity of Pol IV is greatly enhanced by the presence of the β subunit loaded onto a primer/template DNA substrate"}]}]}
